Target: the molecule itself
Experiment: SEC

B1: Phage fusion 55-mer coat protein (pVIII coat fusion protein bearing the MCF-7-specific peptide DMPGTVLP) (designed binder)
chain: ADMPGTVLPDPAKAAFDSLQASATEYIGYAWAMVVVIVGATIGIKLFKKFTSKAS
In the case of B1, the “stoichiometry N” value is reported as 8.
